The substances below were run against HA-CXCR4-RLuc3 (UniProt P61073) (assay: FRET or BRET).
Sequence of UniProt P61073 (P61073 whole entry): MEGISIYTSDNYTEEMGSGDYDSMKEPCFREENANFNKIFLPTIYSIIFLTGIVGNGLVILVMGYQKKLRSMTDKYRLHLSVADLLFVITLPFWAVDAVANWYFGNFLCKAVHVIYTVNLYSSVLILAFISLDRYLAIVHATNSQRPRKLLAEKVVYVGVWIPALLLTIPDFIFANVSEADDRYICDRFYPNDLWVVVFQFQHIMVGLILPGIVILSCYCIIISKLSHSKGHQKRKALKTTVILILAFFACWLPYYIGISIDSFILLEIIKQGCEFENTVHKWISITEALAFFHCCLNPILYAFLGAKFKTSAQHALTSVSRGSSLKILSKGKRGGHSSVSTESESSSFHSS

Kd of BRET acceptor saturation (x axis: acceptor gMFI) | Substance
13.4 | mVenus-mini-Gαs/i(Y320F)
7.1 | mVenus-miniGαs/i WT
16.7 | mVenus-miniGαs/i(Y320E)
